# Source: patent US8357523B2, “Beta-glucosidase variant enzymes and related polynucleotides” (Codexis, Inc., priority 2009, dated 2013)
# How the values were obtained:
# Format in all cases: biochemical
# [1] = Enzyme stability: residual activity on pNPG after pre-incubation at high temperature and low pH; conditions: residual activity on pNPG at pH 7, 30° C.
# Procedure: Residual activity is determined by exposing the enzyme to stress conditions of elevated temperature for a period of time and then determining the β-glucosidase activity. The β-glucosidase activity of the enzyme exposed to stress conditions (“a”) is compared to that of a control in which the enzyme is not exposed to the stress conditions (“b”), and residual activity is equal to the ratio a/b. Exemplary conditions for determining thermostability are provided in Examples 9 and 13. In one embodiment the enzymes are exposed to stress conditions of 50° C. at pH 5.5 or 55° C. at pH 5.0 or 55° C. at pH 5.5, or 65° C. at pH 5.0 for about 1 hour, and assayed at 30° C., pH 7, for about 0.1 hour.
# A colorimetric pNPG (p-nitrophenyl-(β-D-glucopyranoside)-based assay was used for measuring β-glucosidase activity. In a total volume of 100 μL, 20 μL clear media supernatant containing β-glucosidase enzyme was added to 4 mM pNPG (Sigma-Aldrich, Inc. St. Louis, Mo.) solution in 50 mM sodium phosphate buffer at pH6.5. The reactions were incubated at pH 6.5, 45° C. for 1 hour. The reaction mixture was quenched with 100 μL of 1M sodium carbonate pH 11 solution. The absorbance of the solution was measured at 405 nm to determine the conversion of pNPG to p-nitrophenol. The release of p-nitrophenol (ε=17,700 M−1 cm−1) was measured at 405 nm to calculate β-glucosidase activity. Detectable β-glucosidase activity was observed under high throughput screening conditions (pH 7, 50° C.).
# Four CelA variants and wildtype CelA were characterized to determine their stabilities at high temperature (55° C.) and low pH (pH5.5) using the method of Example 5A. The samples containing various CelA variant enzymes were pre-incubated at pH 5.5, 55° C. for 0-6 hrs. The residual enzyme activity after the thermal challenge was measured using pNPG as substrate at pH 7, 30° C. for 1 hr. […] The mutations listed in the table are indicated relative to SEQ ID NO: 4, the wildtype CelA. These sequences included residues GTS prior to the N-terminus of SEQ ID NO: 4 (prepared as described in Example 1). […]
# [2] = Saccharification of microcrystalline cellulose by Trichoderma reesei whole cellulase supplemented with β-glucosidase; conditions: 1 g/L TRWC alone or 25% of TRWC substituted with the β-glucosidase; 200 g/L Avicel, 100 g/L xylose, pH5.5, 55° C., 48 hours
# From the text: FIG. 12 illustrates the impact of supplementing a commercially available Trichoderma reesei whole cellulose (“TRWC”) mixture with a CelA variant of the present invention. Compositions containing TRWC were supplemented with β-glucosdiases CelA Variant No. 264 (“Cel var1”), CelA Variant No. 366 (“Cel var2”), and a commercially available Aspergillus niger β-glucosidase (“ANBG”) in a ratio of 3:1 TRWC to β-glucosidase. The effectiveness of each composition at hydrolyzing microcrystalline cellulose was evaluated as described in Example 15. A plot of glucose and cellobiose concentration (g/L) vs. cellulase composition is depicted. The control composition was TRWC with no added β-glucosidase.
# The impact of adding a CelA variant of the present invention to commercially available cellulose mixtures and microcrystalline cellulose, Avicel™, was evaluated. In the test reactions, 1 g/L Trichoderma reesei whole cellulose (“TRWC”, Sigma catalog #C85456-10KU (ATCC 26921)) was used to convert 200 g/L of the microcrystalline cellulose Avicel™ (200 mM Sodium acetate; 100 g/L xylose, pH5.5 and 55° C.). The amount of glucose was measured after 48 hours of reaction. As a comparison, 25% of the TRWC was replaced with a β-glucosidase: Variant No. 264 (“Cel var1”), Variant No. 366 (“Cel var2”), or with the commercially available cellobiase, Aspergillus niger beta-glucosidase (“ANBG”, Sigma catalog #49291-1G). […]
# [3] = Activity profile at different temperatures and pH using cellobiose (10 g/L) as substrate
# Procedure: β-glucosidase activity was also determined using a cellobiose assay, which used cellobiose as substrate. In a total volume of 100 μL, 25 μL clear media supernatant containing CelA enzyme was added to 10 g/L cellobiose (Fluka Cat. No. 22150, Sigma-Aldrich, Inc., St. Louis, Mo.) in 100 mM sodium phosphate buffer (pH 6-7) or sodium acetate buffer (pH 5-5.5). The reaction was incubated at 45-70° C. for an appropriate time (25 minutes to overnight depending on the enzyme concentration) while shaking. Glucose production was determined using an enzymatic glucose assay (K-GLUC, Megazyme, Ireland). 10 μl of each reaction was added to 190 μl GOPOD reagent (supplied as part of the K-GLUC assay kit). The reaction was incubated at 45° C. for 20 minutes and the absorbance of the solution was measured at 510 nm. The GOPOD reagent contains 50 mM Potassium phosphate buffer pH7.4, 0.011M p-hydroxybenzoic acid, 0.008% w/v sodium azide, glucose oxidase (>12,000 U/L), peroxidase (>650 U/L) and 80 mg/L 4-aminoantipyrine. The glucose oxidase enzyme in the reagent reacts with any glucose present in the sample and produces hydrogen peroxide which then reacts with the 4-aminoantipyrine to produce a quinoneimine dye in quantities proportionate with the amount of glucose present and can be measured spectrophotometrically at 510 nm. Detectable β-glucosidase activity was observed under high throughput screening conditions (i.e., pH 7, 50° C.).
# The native CelA activity profile was investigated at different temperatures (40-55° C.) and pH (5.0-8.0) using cellobiose (10 g/L) as a substrate. The experimental and analytical procedures are described in Example 5.
# The activity profiles for Variant Nos. 264, 366, 391, 463, and 529 were determined at different temperatures and pH using cellobiose (10 g/L) as a substrate. The experimental and analytical procedures are described in Example 5, incubating the variant with cellobiose at temperatures in the range of 45-80. The results are depicted in FIGS. 7-11. […] The temperature and pH profile for this variant is depicted in FIG. 7. […] The temperature and pH profile for this variant is depicted in FIG. 8. […] The temperature and pH profile for this variant is depicted in FIG. 9. […] (with the pH 6 optimum determined by extrapolation). The temperature and pH profile for this variant is depicted in FIG. 10. […] The temperature and pH profile for this variant is depicted in FIG. 11.
molecule,measurement,setting,value
Variant No. 264 (protein) SAAIAQEGAAPAAMLHPEKWPRPATQRLIDPAVEKRVDALLKQLSVEEKVGQVIQGDIGTITPEDLRKYPLGSILAGGDSGPNGDDRAPPKEWLDLADAFYRVSLEKRPGHTPIPVLFGIDAVHGHGNIGSATIFPHNIALGMTRDPELLRRIGEVTAEEMAATGIDWTFAPALSVVRDDRWGRTYEGFSEDPEIVASYSAAIVEGVQGKYGSKDFMAPGRAVACAKHFLADGGTDQGRDQGDARISEDELIRIHNAGYPPAIDAGVLTVMASFSSWQGIKHHGHKQLLTDVLKGQMGFNGFIVGDWNAHDQVPGCTKFNCPTSLIAGLDMYMAADSWKQLYENTLAQVKDGTIPMARLDDAVRRILRVKVLAGLFEKPAPKDRPGLPGLETLGSPEHRAVGREAVRKSLVLLKNDKGTLPLSPKARVLVAGDGADNIGKQSGGWTISWQGTGNRNDEFPGATSILGGIRDAVADAGGSVEFDVAGQYKTKPDVAIVVFGEEPYAEFRGDVETLEYQPDQKQDLTLLKKLKDQGIPVVAVFLSGRPMWVNPELNASDAFVAAWLPGTEGGGVADVLFTDKAGKVQHDFAGKLSYSWPRTAAQTTVNRGDADYNPLFAYGYGLTYKDKSKVGTLPEESGVPAEARQN,"% residual activity after 10 mins @ pH 5.5, 55° C.","[1]; pre-incubation 10 mins at pH 5.5, 55° C., 1 hr",95%
same,"% residual activity after 1 hour @ pH 5.5, 55° C.","[1]; pre-incubation 1 hour at pH 5.5, 55° C.",78%
same,"% residual activity after 6 hours @ pH 5.5, 55° C.","[1]; pre-incubation 6 hours at pH 5.5, 55° C., 1 hr",11%
same,cellobiose and glucose combined yielded in saccharification reaction,[2],comparable results
same,pH of optimum activity,[3],6 pH
same,temperature of optimum activity,[3],58 °C
